Among the data in paper PMC5774586 are FRET efficiency values, retold here.

The target of one assay is FOXA1-Venus (UniProt P55317). The assay can be described thus: FRET or BRET. On the technique in general: Bioluminescence resonance energy transfer reports proximity on the nanometre scale.
The target of another assay is T1, ESR1-Cerulean, P03372.
T1 chain: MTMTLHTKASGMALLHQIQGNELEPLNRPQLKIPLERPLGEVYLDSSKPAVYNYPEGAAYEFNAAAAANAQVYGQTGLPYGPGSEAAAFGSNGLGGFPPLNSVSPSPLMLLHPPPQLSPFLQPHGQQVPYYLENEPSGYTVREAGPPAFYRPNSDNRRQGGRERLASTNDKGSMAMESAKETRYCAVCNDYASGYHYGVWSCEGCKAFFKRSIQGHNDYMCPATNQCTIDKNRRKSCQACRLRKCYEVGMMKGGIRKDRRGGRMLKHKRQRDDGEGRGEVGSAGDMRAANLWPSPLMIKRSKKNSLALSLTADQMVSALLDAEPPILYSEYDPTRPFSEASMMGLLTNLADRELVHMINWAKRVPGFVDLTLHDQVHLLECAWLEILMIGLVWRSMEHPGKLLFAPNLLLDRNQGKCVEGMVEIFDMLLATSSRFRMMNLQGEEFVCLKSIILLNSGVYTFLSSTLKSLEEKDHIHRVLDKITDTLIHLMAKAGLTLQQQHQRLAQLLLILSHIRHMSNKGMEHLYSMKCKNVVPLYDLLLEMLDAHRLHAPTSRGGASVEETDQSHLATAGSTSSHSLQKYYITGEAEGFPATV
The assay can be described thus: FRET or BRET. The note with it: remark: other sources report otherwise.

In the assay with FOXA1-Venus, “NFIB-Cerulean (from UniProt O00712 1-420) (natural protein)” came in with an FRET efficiency of 0.055.

B1: FOXA1-Venus, P55317 1-472 (natural protein)
chain: MLGTVKMEGHETSDWNSYYADTQEAYSSVPVSNMNSGLGSMNSMNTYMTMNTMTTSGNMTPASFNMSYANPGLGAGLSPGAVAGMPGGSAGAMNSMTAAGVTAMGTALSPSGMGAMGAQQAASMNGLGPYAAAMNPCMSPMAYAPSNLGRSRAGGGGDAKTFKRSYPHAKPPYSYISLITMAIQQAPSKMLTLSEIYQWIMDLFPYYRQNQQRWQNSIRHSLSFNDCFVKVARSPDKPGKGSYWTLHPDSGNMFENGCYLRRQKRFKCEKQPGAGGGGGSGSGGSGAKGGPESRKDPSGASNPSADSPLHRGVHGKTGQLEGAPAPGPAASPQTLDHSGATATGGASELKTPASSTAPPISSGPGALASVPASHPAHGLAPHESQLHLKGDPHYSFNHPFSINNLMSSSEQQHKLDFKAYEQALQYSPYGSTLPASLPLGSASVTTRSPIEPSALEPAYYQGVYSRPVLNTS
Molecule B1 returned an FRET efficiency in the assay with ESR1-Cerulean, P03372 of 0.139.
